Experimental data taken from the supplement of paper PMC10567573.

B1: SOAT1 (parent)
chain: PSNGRIDIKQLIAKKIKLTAEAEE
B2: TRAF3IP2 (parent)
chain: KQGSMNFRFIPVLFPNAKKEHVPT

Variants of: B1
Experiment: protein stability index of a GFP-peptide fusion (GPS, HEK-293T) (PSI 1-6); higher = more stable
Details: c terminus: a fixed tail appended
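Also: lentivirally expressed fusions sorted by FACS into six bins by GFP to DsRed ratio, PSI derived from sequencing read proportions per bin multiplied by bin number.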

Protein stability index: each site, then its substitutions
E24: M 2.27 | A 2.78 | Q 2.95 | G 2.7 | I 2.27 | T 3.44 | L 3.11 | F 2.22 | H 2.94 | S 2.73 | R 2.79 | W 2.44 | V 2.48 | Y 2.68 | C 3.19 | D 3.39 | P 3.24 | N 3.07 | K 2.98
A22: S 3.26 | Q 3.72 | T 2.82 | Y 2.91 | R 2.79 | V 2.94 | W 2.48
E23: A 2.66 | G 2.98 | P 2.88 | M 2.06 | I 2.69 | Q 2.35 | C 2.33 | K 3.15 | F 1.75 | R 2.74 | L 2.12 | N 2.93 | S 2.51 | T 3.13 | W 2.31 | V 2.3 | D 3.3 | Y 2.22 | H 2.67

Variants of: B2
Experiment: as above
Details: c terminus: a fixed tail appended

Protein stability index, by site and new letter:
F9: E 3.94 | R 2.84 | N 3.56 | T 3.66 | L 2.44 | M 2.69 | D 3.99 | H 3.38 | V 2.77 | C 2.15 | I 2.06 | Y 2.5 | P 3.22 | W 2.31 | Q 3.3 | K 3.41 | A 3.43 | S 3.2 | G 3.17
F14: S 2.42 | C 1.87 | R 1.8 | K 2.62 | W 2.46 | P 2.71 | I 1.36 | G 2.29 | L 1.68 | N 2.06 | Y 1.95 | Q 2.71 | D 2.77 | A 1.88 | V 2.3 | H 2.12 | M 2.56 | T 2.76 | E 3.19
V12: W 2.06 | L 2.12 | E 2.76 | R 2.49 | Y 1.97 | M 1.86 | G 1.96 | N 2.84 | A 2.31 | I 2.14 | T 1.86 | S 2.35 | C 2.35 | K 2.39 | Q 2.4 | H 2.39 | P 2.33 | D 2.17 | F 2.14
R8: K 2.61 | A 1.78 | W 2.44 | Q 3.08 | C 2.52 | M 1.88 | I 2.88 | S 2.39 | G 1.9 | E 3.28 | F 1.61 | L 2.22 | H 2.41 | V 2.02 | D 3.3 | N 2.8 | P 2.68 | T 2.04 | Y 2.09
S4: P 2.98 | N 2.26 | Y 2.14 | A 2.68 | F 1.5 | W 1.41 | C 1.73 | V 1.87 | K 1.74 | L 1.2 | E 2.57 | G 1.53 | M 1.81 | D 2.4 | T 2 | H 1.68 | Q 2.59 | R 1.48
G3: K 1.6 | I 1.77 | L 1.67 | V 2.06 | Y 1.33 | R 1.83 | Q 1.85 | S 1.82 | H 2.01 | E 2.09 | D 2.02 | N 2.05 | A 1.9 | C 2.06 | P 1.74 | F 3.01 | T 2.44 | W 2.25 | M 1.75
L13: Q 2.02 | T 1.86 | F 2.04 | A 1.66 | E 2.88 | M 1.77 | Y 1.82 | C 2.07 | H 2.38 | R 1.93 | S 2.14 | W 2.09 | P 1.87 | N 2.28 | G 1.93 | K 2.06 | I 1.75 | V 2.01 | D 2.62
I10: F 2.11 | K 2.56 | T 2.07 | P 3.42 | H 1.67 | S 2.46 | M 2.23 | N 2.9 | D 3.37 | Y 2.29 | R 2.75 | A 1.98 | L 2.23 | Q 1.98 | C 2.3 | W 1.97 | G 2.76 | V 1.31 | E 3.16
P11: N 1.7 | W 2.25 | E 1.45 | H 2.14 | V 2.91 | Y 3.97 | G 2.35 | F 3.53 | M 2.98 | D 2.37 | Q 1.85 | L 2.75 | R 2.14 | A 2.39 | K 2.02 | C 3.83 | S 1.36 | I 3.73 | T 1.86
N6: R 1.66 | F 1.74 | V 1.93 | C 1.67 | S 1.96 | Y 2.14 | L 1.81 | P 2.44 | D 1.89 | I 2.15 | E 2.1 | T 1.96 | H 1.72 | G 1.56 | W 1.83 | A 1.76 | M 1.58 | Q 1.81 | K 1.6
Q2: L 2.23 | H 1.63 | D 1.8 | V 1.85 | K 1.91 | I 2.82 | Y 2.08 | F 1.87 | E 2.13 | C 1.8 | W 2.27 | P 1.93 | A 2.47 | N 1.91 | G 2.66 | T 1.84 | R 1.47 | M 1.48 | S 1.82
N16: D 1.58 | C 1.89 | E 1.85 | A 1.75 | F 1.63
M5: C 1.98 | R 2.2 | K 2.8 | E 2.88 | L 1.97 | H 2.15 | F 1.52 | P 2.1 | G 2.43 | T 2.5 | N 2.44 | Y 1.87 | D 3.35 | Q 2.65 | A 2.21 | W 1.8 | V 1.91 | I 2.01 | S 2.04
K1: N 1.94 | R 2.31 | W 2.08 | P 1.88 | D 2.02 | S 2.16 | Q 1.88 | H 2.17 | V 1.95 | I 1.63 | M 1.94 | A 2.02 | F 2.23 | C 2.01 | Y 2.57 | G 2.19 | E 2.7 | L 1.51 | T 2.32
P15: N 1.87 | M 1.58 | I 2.17 | S 1.75 | T 2.54 | D 2.05 | L 2.43 | A 1.66 | K 1.52 | V 2.56 | Y 2.04 | H 1.87 | E 2.14 | F 2.2 | R 1.92 | W 2.67 | Q 1.41 | C 1.7 | G 1.49
F7: Q 3.19 | P 3.31 | S 3.12 | G 3.01 | N 2.92 | T 2.73 | V 2.13 | H 2.87 | L 1.91 | C 2.38 | W 2.23 | D 2.91 | R 2.69 | K 3.06 | I 2.12 | M 2.32 | Y 2.59 | A 2.95 | E 3.67
